We go through nine molecules from patent US20260209362A1 (VIB VZW, published 2026).

The target of assay [1] is biotinylated recombinant mouse IL-12Rβ2 (mouse) (UniProt P97378). The experiment in a line: ELISA, P.E., biotinylated antigen.
In assay [2] the target is T1, biotinylated recombinant human IL-12Rβ2 (human, UniProt Q99665 24-622, random biotinylated).
T1 construct: Recombinant protein produced in-house; also called hIL-12RB2; human IL-12RB2
T1 sequence: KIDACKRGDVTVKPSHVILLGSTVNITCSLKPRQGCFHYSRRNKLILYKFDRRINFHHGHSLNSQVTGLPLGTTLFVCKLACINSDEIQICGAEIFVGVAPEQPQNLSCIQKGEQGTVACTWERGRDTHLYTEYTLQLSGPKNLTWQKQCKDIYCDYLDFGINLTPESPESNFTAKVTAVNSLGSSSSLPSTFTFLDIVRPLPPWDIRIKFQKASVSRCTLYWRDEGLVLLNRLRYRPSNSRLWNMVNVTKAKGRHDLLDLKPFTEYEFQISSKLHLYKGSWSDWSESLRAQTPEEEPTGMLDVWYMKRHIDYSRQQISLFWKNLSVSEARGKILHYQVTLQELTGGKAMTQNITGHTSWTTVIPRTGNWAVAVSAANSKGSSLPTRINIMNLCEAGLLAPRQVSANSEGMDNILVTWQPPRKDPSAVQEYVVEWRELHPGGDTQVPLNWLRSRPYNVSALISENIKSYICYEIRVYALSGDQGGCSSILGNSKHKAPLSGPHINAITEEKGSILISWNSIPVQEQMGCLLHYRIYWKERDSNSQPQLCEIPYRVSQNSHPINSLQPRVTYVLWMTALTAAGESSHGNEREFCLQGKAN
The experiment in a line: ELISA, P.E., biotinylated antigen. For orientation: ELISA stands for enzyme-linked immunosorbent assay.

Assay [3] has as its target T1, biotinylated recombinant human IL-12Rβ2. The assay can be described thus: BLI, P.E., off-rate ranking. A general note: In BLI a coated tip is dipped into the sample, and binding shifts an interference pattern.
The target of assay [4] is T2, biotinylated recombinant mouse IL-12Rβ2 (produced in-house) (mouse, UniProt P97378 24-637, random biotinylated).
T2 construct: also called mIL-12RB2; mIL12RB2
T2 sequence: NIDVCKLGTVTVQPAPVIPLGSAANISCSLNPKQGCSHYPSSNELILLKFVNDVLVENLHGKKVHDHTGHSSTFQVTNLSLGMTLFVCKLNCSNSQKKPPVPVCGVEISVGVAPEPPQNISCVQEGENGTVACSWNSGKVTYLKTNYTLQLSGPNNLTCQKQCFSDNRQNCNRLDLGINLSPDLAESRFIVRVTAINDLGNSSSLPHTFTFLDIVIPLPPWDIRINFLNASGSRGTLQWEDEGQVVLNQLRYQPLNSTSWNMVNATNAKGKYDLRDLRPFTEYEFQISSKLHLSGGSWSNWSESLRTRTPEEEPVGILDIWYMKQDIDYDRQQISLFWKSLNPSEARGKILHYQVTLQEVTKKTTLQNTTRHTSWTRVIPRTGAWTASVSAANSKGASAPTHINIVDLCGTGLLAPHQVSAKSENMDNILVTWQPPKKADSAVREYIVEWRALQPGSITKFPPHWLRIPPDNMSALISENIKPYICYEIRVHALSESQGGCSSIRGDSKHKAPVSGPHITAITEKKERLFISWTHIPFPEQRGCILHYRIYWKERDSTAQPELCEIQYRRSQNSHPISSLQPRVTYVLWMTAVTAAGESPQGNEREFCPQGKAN
The experiment in a line: ELISA, P.E. VHH on biotinylated mIL-12RB2, signal ratio to control well.

In assay [5] the target is T3, mouse IL-12Rβ2 expressed on cells (mouse, UniProt P97378 24-874).
T3 construct: HEK293T cells, stably transduced (cDNA NM_008354); also called mIL-12RB2
T3 sequence: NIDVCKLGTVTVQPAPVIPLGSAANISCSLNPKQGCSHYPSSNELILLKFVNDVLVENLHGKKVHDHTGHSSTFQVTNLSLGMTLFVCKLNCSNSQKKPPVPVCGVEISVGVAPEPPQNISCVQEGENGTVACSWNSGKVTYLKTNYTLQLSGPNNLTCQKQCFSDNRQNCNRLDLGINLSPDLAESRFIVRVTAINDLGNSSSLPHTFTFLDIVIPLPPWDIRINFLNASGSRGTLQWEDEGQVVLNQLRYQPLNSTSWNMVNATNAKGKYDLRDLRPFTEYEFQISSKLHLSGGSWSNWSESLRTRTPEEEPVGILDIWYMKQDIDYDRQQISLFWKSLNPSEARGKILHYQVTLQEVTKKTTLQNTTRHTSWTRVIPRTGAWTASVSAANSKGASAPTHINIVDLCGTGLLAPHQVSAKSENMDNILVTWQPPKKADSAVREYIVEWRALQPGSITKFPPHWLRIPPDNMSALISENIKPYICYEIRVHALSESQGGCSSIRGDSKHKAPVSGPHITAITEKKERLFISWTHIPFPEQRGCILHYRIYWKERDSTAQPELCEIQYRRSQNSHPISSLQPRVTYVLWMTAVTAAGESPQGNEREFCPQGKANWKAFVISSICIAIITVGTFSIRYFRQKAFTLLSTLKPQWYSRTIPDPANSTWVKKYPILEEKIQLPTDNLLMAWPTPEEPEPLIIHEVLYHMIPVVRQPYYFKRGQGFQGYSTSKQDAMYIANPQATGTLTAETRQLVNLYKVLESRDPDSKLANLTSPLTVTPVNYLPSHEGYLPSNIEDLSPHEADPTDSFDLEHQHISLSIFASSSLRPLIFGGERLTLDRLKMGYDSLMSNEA
The assay can be described thus: flow cytometry, P.E. VHH on HEK293T cells stably expressing mIL-12RB2.

Assay [6] addresses T3, mouse IL-12Rβ2 expressed on cells. The assay can be described thus: flow cytometry, P.E. VHH on HEK293T cells expressing mIL-12RB2. (In general: Flow cytometry measures light scatter and fluorescence of single cells or particles in a stream.)
The target of assay [7] is T4, biotinylated recombinant human IL-12Rβ2 (produced in-house) (human, UniProt Q99665 24-622, random biotinylated).
T4 construct: also called hIL-12RB2; hIL12RB2
T4 sequence: T1 sequence
The experiment in a line: ELISA, P.E. VHH on biotinylated hIL-12RB2.

Assay [8] has as its target T4, biotinylated recombinant human IL-12Rβ2 …. The experiment in a line: ELISA, P.E. VHH on biotinylated hIL-12RB2, signal ratio to control well.
Assay [9] deals with T5, biotinylated recombinant mouse IL-12Rβ2 (mouse, UniProt P97378 24-637, random biotinylated).
T5 construct: Recombinant protein produced in-house; also called mIL-12RB2; mouse IL-12RB2
T5 sequence: T2 sequence
The assay can be described thus: ELISA, P.E., biotinylated antigen.

The target in assay [10] is T5, biotinylated recombinant mouse IL-12Rβ2. The experiment in a line: BLI, P.E., off-rate ranking.
For assay [11], the target named is biotinylated recombinant human IL-12Rβ2 (human) (UniProt Q99665). The assay can be described thus: ELISA, periplasmic extract on biotinylated hIL-12Rβ2, signal over control wells.
Assay [12] deals with T6, biotinylated recombinant mouse IL-12Rβ2 (mouse, UniProt P97378 24-637, random biotinylated).
T6 construct: Recombinant protein produced in-house, biotinylated; also called mIL-12RB2; mouse IL-12RB2
T6 sequence: T2 sequence
The assay can be described thus: ELISA, periplasmic extract on biotinylated mIL-12Rβ2, signal over control wells.

Substitutions are numbered along the chain they refer to.

B1: anti-IL-12Rβ2 VHH clone 3CRH17 (clone ID 20376) (VHH, not shown: small tags and cut ends)
VHH: QVQLQESGGGLVQAGGSLVLSCAASGSAALIFLMSWYRQAPGKQRELVAEVSRYGSTTYADSVEGRFTISRDNAKNIVDLQMNSLKPEDTAVYYCKADQYYGDSLRSSWGRGTQVTVSS
notes: periplasmic extract
In general, koff refers to the rate constant with which the complex falls apart. As to B1, in assay [1], the ELISA mIL-12RB2/control stood at 2.85. In addition, the “ELISA hIL-12RB2/control” value in assay [2] was determined as 9.8. In assay [3], the Response was 0.53 and the koff came out at 0.00446 s⁻¹.

B2: anti-IL-12Rβ2 VHH clone 3CRH67 (clone ID 20387) (VHH, not shown: small tags and cut ends)
VHH: B1 VHH with V92A
notes: periplasmic extract
Take B2: in assay [1], the ELISA mIL-12RB2/control came to 2.11. In assay [2], the “ELISA hIL-12RB2/control” value was 10. In addition, in [3], the Response stood at 0.617 and the koff came to 0.00495 s⁻¹.

B3: anti-IL-12Rβ2 VHH clone 2CAMS52 (VHH, not shown: small tags and cut ends)
VHH: QVQLQESGGGLVQPGASLRLSCATSGPTLSTYAMGWFRQAPGKEREVVATISWSGGRVTYVDSVKGRFTISRDNAKNTAYLQMNRLRPDDTAVYTCAARESDYGAYDYWGQGTQVTVSS
notes: tested as periplasmic extract; also called 20535; 2CAMSSZ
Turning to B3, the “ELISA mIL12RB2/control” value in assay [4] came to 5.41. In [5], the “% cells bound” value worked out at 60.9% and the dMFI worked out at 342. In assay [6], the “% cells bound” value was 60.9% and the dMFI was 342. Besides, in [7], the binding result was “no binding”. The “ELISA hIL12RB2/control” value in assay [8] is 0.97.

B4: anti-IL-12Rβ2 VHH clone 3CRH83 (clone ID 20390) (VHH, not shown: small tags and cut ends)
VHH: QVQLQESGGGLVQAGGSLKLSCAASGNTFSINAMAWYRQAPGQELELVAAISDVGNTIYADSMKGRFTISRGNADNTVYLQMNSLKPEDTATYYCNAGTFYTSPGDSYYRGYDFWGQGTQVTVSS
notes: periplasmic extract
Consider B4, for which the “ELISA hIL-12RB2/control” value in assay [2] was found to be 8.46. In addition, the “ELISA mIL-12RB2/control” value in assay [9] was found to be 14. In [3], the Response was 0.693 and the koff was 0.00528 s⁻¹. For the same molecule, in assay [10], the Response was 1.35 and the koff is 0.00722 s⁻¹.

B5: anti-IL-12Rβ2 VHH clone 3CAM65 (VHH, not shown: small tags and cut ends)
VHH: QVQLQESGGGLVQAGGSLRLSCAPSGRTFTTYVMGWFRQAPGKEREFVAHISWSGGRTYYADSVKGRFTISRDNAKNTSYLQMNSLKPEDTAVYYCAAARSDAVRIGYAEGYEYWGQGTQVTVSS
notes: tested as periplasmic extract; also called 20513
For B5, in assay [4], the “ELISA mIL12RB2/control” value was 5.98. For the same molecule, in [5], the “% cells bound” value is 57.9% and the dMFI stood at 315. For the same molecule, in assay [6], the “% cells bound” value is 57.9% and the dMFI was 315. Also, in [7], the binding result is “no binding”. Moreover, in [8], the “ELISA hIL12RB2/control” value stood at 1.25.

B6: anti-IL-12Rβ2 VHH clone 3CAM57 (VHH, not shown: small tags and cut ends)
VHH: QVQLQESGGGLVQAGGSLRLSCTPSGRTFSTLAMGWFRQAPGKEREVVATISWSGGRTYYASSVKSRFTISRDNAKNTAYLQMNSLRPDDTAVYYCAARGTDYGAYDYWGQGTQVTVSS
notes: tested as periplasmic extract; also called 20512; 3CAMS7
With B6, the “ELISA mIL12RB2/control” value in assay [4] worked out at 47.4. In [5], the “% cells bound” value is 62.2% and the dMFI was found to be 351. Besides, in assay [6], the “% cells bound” value stood at 62.2% and the dMFI is 351. Besides, the binding result in assay [7] was “no binding”. Besides, in assay [8], the “ELISA hIL12RB2/control” value came out at 1.31.

B7: anti-IL-12Rβ2 VHH clone 20450 (VHH, not shown: small tags and cut ends)
VHH: QVQLQESGGGLVQPGGSLRLSCAASGFTISNYAMSWVRQAPGKGLEWVSSIGSNIASTNYADSVKGRFTISRDNAKNTLYLQMNSLKPEDTAVYYCAKASQNHSPPGQGTQVTVSS
notes: tested as periplasmic extract; also called 2CRM61
As for B7, the ELISA binding hIL-12RB2/control in assay [11] stood at 2.18. Besides, the “ELISA binding mIL-12RB2/control” value in assay [12] stood at 18 ratio.

B8: anti-IL-12Rβ2 VHH clone 20460 (VHH, not shown: small tags and cut ends)
VHH: B7 VHH with P14A, I29L, S30G, N31S, G52S, N54S, I55G, A56T, S57N, Q111P
notes: tested as periplasmic extract; also called 3CRM63
Consider B8, for which the ELISA binding hIL-12RB2/control in assay [11] came to 2.43. Moreover, the “ELISA binding mIL-12RB2/control” value in assay [12] came out at 16.6 ratio.

B9: anti-IL-12Rβ2 VHH clone 3CAM1 (VHH, not shown: small tags and cut ends)
VHH: QVQLQESGGGLVQAGGSLRLSCAASGRTFGSHRMGWFRQAPGQEREFVAAIAWRGGTQYYTDSVKGRFTISRDNANNTVYLQMNSLKPEDAAVYYCVAGEGSSWGDITDPRRYVFWGQGTQVTVSS
notes: tested as periplasmic extract
As to B9, in assay [4], the “ELISA mIL12RB2/control” value turned out to be 3.3. For the same molecule, in assay [5], the “% cells bound” value is 63% and the dMFI worked out at 376. For the same molecule, in assay [6], the “% cells bound” value came to 63% and the dMFI was 376. In addition, in assay [7], the binding result is reported as “no binding”. Moreover, in assay [8], the “ELISA hIL12RB2/control” value is 1.2.
